Source: patent US11306156

Tests used:
[1] = target: D3H44 Fab heavy chain A139C_C233S; assay: LCCA, L1:L2 DNA 1:3 normalised to 1:1, SPR of light chain tags; competitor m42
[2] = target: D3H44 Fab heavy chain A139C_C233S; assay: LCCA, L1:L2 DNA 1:9 normalised to 1:1, SPR of light chain tags; competitor m42
[3] = target: D3H44 Fab heavy chain L143E_K145T_S188L; assay: LCCA, L1:L2 DNA 1:3 normalised to 1:1, SPR of light chain tags; competitor m34
[4] = target: D3H44 Fab heavy chain L143K; assay: as above
[5] = target: D3H44 Fab heavy chain L143E_K145T_S188L; assay: LCCA, L1:L2 DNA 1:3 normalised to 1:1, SPR of light chain tags; competitor m33
[6] = target: D3H44 Fab heavy chain L143R; assay: as above
[7] = target: D3H44 Fab heavy chain L143R; assay: LCCA, L1:L2 DNA 1:3 normalised to 1:1, SPR of light chain tags; competitor m34
[8] = target: D3H44 Fab heavy chain L124A_S186K; assay: LCCA, L1:L2 DNA 1:3 normalised to 1:1, SPR of light chain tags; competitor m33
[9] = target: D3H44 Fab heavy chain L143E_K145T; assay: LCCA, L1:L2 DNA 1:3 normalised to 1:1, SPR of light chain tags; competitor m35
[10] = target: D3H44 Fab heavy chain L143E_K145T_S188L; assay: LCCA, L1:L2 DNA 1:3 normalised to 1:1, SPR of light chain tags; competitor m38
[11] = target: D3H44 Fab heavy chain L143E_K145T_S188L; assay: LCCA, L1:L2 DNA 1:3 normalised to 1:1, SPR of light chain tags; competitor m40
[12] = target: D3H44 Fab heavy chain L143E_K145T; assay: LCCA, L1:L2 DNA 1:3 normalised to 1:1, SPR of light chain tags; competitor m32
[13] = target: D3H44 Fab heavy chain L143E_K145T_S188L; assay: LCCA, L1:L2 DNA 1:3 normalised to 1:1, SPR of light chain tags; competitor m37
[14] = target: D3H44 Fab heavy chain F122C_C233S; assay: LCCA, L1:L2 DNA 1:3 normalised to 1:1, SPR of light chain tags; competitor m42
[15] = target: D3H44 Fab heavy chain L143E_K145T; assay: LCCA, L1:L2 DNA 1:3 normalised to 1:1, SPR of light chain tags; competitor m31
[16] = target: D3H44 Fab heavy chain Q179K; assay: as above
[17] = target: D3H44 Fab heavy chain Q179R; assay: as above
[18] = target: D3H44 Fab heavy chain S186R; assay: as above
[19] = target: D3H44 Fab heavy chain L143E_K145T; assay: LCCA, L1:L2 DNA 1:3 normalised to 1:1, SPR of light chain tags; competitor m33
[20] = target: D3H44 Fab heavy chain S186R; assay: as above
[21] = target: D3H44 Fab heavy chain P175C_C233S; assay: LCCA, L1:L2 DNA 1:3 normalised to 1:1, SPR of light chain tags; competitor m42
[22] = target: D3H44 Fab heavy chain P175C_C233S; assay: LCCA, L1:L2 DNA 1:9 normalised to 1:1, SPR of light chain tags; competitor m42
[23] = target: D3H44 Fab heavy chain S188G; assay: LCCA, L1:L2 DNA 1:3 normalised to 1:1, SPR of light chain tags; competitor m42
[24] = target: D3H44 Fab heavy chain S188L; assay: as above
[25] = target: D3H44 Fab heavy chain L124A; assay: LCCA, L1:L2 DNA 1:3 normalised to 1:1, SPR of light chain tags; competitor m50
[26] = target: D3H44 Fab heavy chain L124W_L143F; assay: as above
[27] = target: D3H44 Fab heavy chain of LCCA set 6036; assay: as above
[28] = target: D3H44 Fab heavy chain A139G_F174V_V190A; assay: LCCA, L1:L2 DNA 1:3 normalised to 1:1, SPR of light chain tags; competitor m45
[29] = target: D3H44 Fab heavy chain S188L_V190Y; assay: as above
[30] = target: D3H44 Fab heavy chain A139G_F174V_V190A; assay: LCCA, L1:L2 DNA 1:9 normalised to 1:1, SPR of light chain tags; competitor m45
[31] = target: D3H44 Fab heavy chain S188L_V190Y; assay: as above
[32] = target: D3H44 Fab heavy chain L124A; assay: LCCA, L1:L2 DNA 1:3 normalised to 1:1, SPR of light chain tags; competitor m51
[33] = target: D3H44 Fab heavy chain L124W_L143F; assay: as above
[34] = target: D3H44 Fab heavy chain of LCCA set 6036; assay: as above
[35] = target: D3H44 Fab heavy chain S188L; assay: LCCA, L1:L2 DNA 1:3 normalised to 1:1, SPR of light chain tags; competitor m47
[36] = target: D3H44 Fab heavy chain S188L; assay: LCCA, L1:L2 DNA 1:3 normalised to 1:1, SPR of light chain tags; competitor m48
[37] = target: D3H44 Fab heavy chain S188L_V190F; assay: LCCA, L1:L2 DNA 1:3 normalised to 1:1, SPR of light chain tags; competitor m49
[38] = target: D3H44 Fab heavy chain S188L_V190F; assay: LCCA, L1:L2 DNA 1:9 normalised to 1:1, SPR of light chain tags; competitor m49

Question: Which H1L1:H1L2 normalized median scalar value ln(r1/f1) [1] does the source give for D3H44 light chain F116C_C214S here?
Answer: 1.37

Question: And the H1L1:H1L2 normalized median scalar value ln(r1/f1) [2]?
Answer: 1.39

Question: With D3H44 light chain Q124E_V133D_S176L as the substance, how does the H1L1:H1L2 normalized median ratio [3] read?
Answer: 26%

Question: What about the H2L2:H2L1 normalized median ratio [4] of the same substance?
Answer: 90%

Question: With D3H44 light chain Q124E_V133E as the substance, how does the H1L1:H1L2 normalized median ratio [5] read?
Answer: 49%

Question: And the H2L2:H2L1 normalized median ratio [6]?
Answer: 96%

Question: Which results are given for D3H44 light chain Q124E_V133E_S176L?
Answer: H1L1:H1L2 normalized median ratio [3]: 31%; H2L2:H2L1 normalized median ratio [7]: 86%

Question: Which H1L1:H1L2 normalized median scalar value ln(r1/f1) [8] does the source give for D3H44 light chain Q124E_V133W_T180E here?
Answer: 2.54

Question: How did the H1L1:H1L2 normalized median scalar value ln(r1/f1) [9] turn out when D3H44 light chain Q124R was run?
Answer: 0.71

Question: And the H1L1:H1L2 normalized median scalar value ln(r1/f1) [10]?
Answer: 1.06

Question: What about the H1L1:H1L2 normalized median scalar value ln(r1/f1) [11] of the same substance?
Answer: 0.82

Question: Which results are given for D3H44 light chain Q124R_Q160K_T178R?
Answer: H1L1:H1L2 normalized median scalar value ln(r1/f1) [12]: -0.14; H1L1:H1L2 normalized median scalar value ln(r1/f1) [13]: 0.03

Question: For D3H44 light chain S121C_C214S, which H1L1:H1L2 normalized median scalar value ln(r1/f1) [14] is on record?
Answer: 3.12

Question: D3H44 light chain S131E was tested. Which H1L1:H1L2 normalized median ratio [15] did it give?
Answer: 54%

Question: What about the H2L2:H2L1 normalized median ratio [16] of the same substance?
Answer: 97%

Question: What about the H2L2:H2L1 normalized median ratio [17] of the same substance?
Answer: 97%

Question: And the H2L2:H2L1 normalized median ratio [18]?
Answer: 95%

Question: And the H1L1:H1L2 normalized median ratio [19]?
Answer: 53%

Question: What about the H2L2:H2L1 normalized median ratio [20] of the same substance?
Answer: 96%

Question: For D3H44 light chain S162C_C214S, which H1L1:H1L2 normalized median scalar value ln(r1/f1) [21] is on record?
Answer: 1.84

Question: And the H1L1:H1L2 normalized median scalar value ln(r1/f1) [22]?
Answer: 1.24

Question: D3H44 light chain S176L was tested. Which H1L1:H1L2 normalized median ratio [23] did it give?
Answer: 22%

Question: And the H1L1:H1L2 normalized median scalar value ln(r1/f1) [23]?
Answer: -1.25

Question: What about the H2L2:H2L1 normalized median ratio [24] of the same substance?
Answer: 7%

Question: How did the H1L1:H1L2 normalized median ratio [25] turn out when D3H44 light chain V133A was run?
Answer: 59%

Question: And the H2L2:H2L1 normalized median ratio [26]?
Answer: 56%

Question: And the H2L2:H2L1 normalized median ratio [27]?
Answer: 59%

Question: How did the H1L1:H1L2 normalized median ratio [28] turn out when D3H44 light chain V133S was run?
Answer: 26%

Question: What about the H2L2:H2L1 normalized median ratio [29] of the same substance?
Answer: 58%

Question: What about the H1L1:H1L2 normalized median ratio [30] of the same substance?
Answer: 11%

Question: What about the H2L2:H2L1 normalized median ratio [31] of the same substance?
Answer: 62%

Question: With D3H44 light chain V133W as the substance, how does the H1L1:H1L2 normalized median ratio [32] read?
Answer: 41%

Question: And the H1L1:H1L2 normalized median scalar value ln(r1/f1) [32]?
Answer: -0.38

Question: And the H2L2:H2L1 normalized median ratio [33]?
Answer: 44%

Question: What about the H2L2:H2L1 normalized median ratio [34] of the same substance?
Answer: 41%

Question: For D3H44 light chain, wild type, which H2L2:H2L1 normalized median ratio [35] is on record?
Answer: 93%

Question: And the H2L2:H2L1 normalized median ratio [36]?
Answer: 61%

Question: What about the H2L2:H2L1 normalized median ratio [37] of the same substance?
Answer: 61%

Question: And the H2L2:H2L1 normalized median ratio [38]?
Answer: 72%
